# According to patent US20200025774A1 (ENTEROME S A, published 2020):
# Biological target: T1, HLA-A*0201 molecule expressed on human T2 cells (human)
# T1 construct: also called HLA.A2.01
# Assay: T2 cell HLA-A*0201 stabilisation assay, flow cytometry; ratio of the peptide concentrations inducing 20% of HLA-A*0201 expression
# Description: T2 cells (2.10⁵ cells per well) were incubated with decreasing concentrations of peptides from 100 μM to 0.1 μM in a AIMV medium supplemented with 100 ng/μl of human β2m at 37° C. for 16 hours.
# The analysis was performed by FACS (Guava Easy Cyte). […] The relative affinity is then determined as follows:
row,Binder,In vitro binding affinity (relative affinity against reference peptide HIV pol 589-597)
1,ILPFGFILA [peptide 1I9A],2.22
2,ALPFGFILV [peptide 1A9V],3.06
3,FLPFGFILM [peptide 1F9M],2.62
